In PMC4243959, “Sequestration of latent TGF-β binding protein 1 into CADASIL-related Notch3-ECD deposits” (Acta Neuropathologica Communications, 2014):

What was measured:
[1] = molecular target: recombinant human Notch3 encompassing aa 40-467 (N3EGF1-11-Fc) (human) (UniProt Q9UM47); experiment: ELISA; solid-phase binding assay: 1 μg N3EGF1-11-Fc coated on Maxisorp plates in PBS overnight at 4°C, blocked with PBS/1% BSA; 50 μL conditioned supernatant of transfected HEK293T cells bound 1 h at room temperature; detection with anti-V5 or anti-LTBP-1 and anti-mouse-HRP; IgG1-Fc as control ligand
[2] = molecular target: the molecule itself; experiment: scanning for intensely fluorescent targets (SIFT); purified proteins labelled with different fluorescent dyes, pre-cleared at 100,000 g, incubated pairwise in solution; 64 nM LTBP-1 variants, 160 nM N3EGF1-5; confocal single-particle measurement after 24 h

Molecule | fold binding over the control ligand IgG-Fc [1] | binding result [2]
full-length LTBP-1S (short human isoform of latent TGF-β binding protein 1, 1395 aa) with N-terminal HA tag and C-terminal V5-His tag (natural protein) | 4.9 fold | –
LTBP-1ΔN containing a C-terminal V5-His tag (LTBP-1ΔN_V5) (domain or fragment, human, UniProt Q14766-2 528-1395, looked up, fluorescent dye label (dye and site not stated), numbers count on: the short isoform of 1395 aa; source: HEK293E, purified (metal-ion matrix, via His tag); not shown: V5, C-terminal, kept; His, C-terminal, kept) APEASTSSASQVIAPTQVTEINECTVNPDICGAGHCINLPVRYTCICYEGYRFSEQQRKCVDIDECTQVQHLCSQGRCENTEGSFLCICPAGFMASEEGTNCIDVDECLRPDVCGEGHCVNTVGAFRCEYCDSGYRMTQRGRCEDIDECLNPSTCPDEQCVNSPGSYQCVPCTEGFRGWNGQCLDVDECLEPNVCANGDCSNLEGSYMCSCHKGYTRTPDHKHCRDIDECQQGNLCVNGQCKNTEGSFRCTCGQGYQLSAAKDQCEDIDECQHRHLCAHGQCRNTEGSFQCVCDQGYRASGLGDHCEDINECLEDKSVCQRGDCINTAGSYDCTCPDGFQLDDNKTCQDINECEHPGLCGPQGECLNTEGSFHCVCQQGFSISADGRTCEDIDECVNNTVCDSHGFCDNTAGSFRCLCYQGFQAPQDGQGCVDVNECELLSGVCGEAFCENVEGSFLCVCADENQEYSPMTGQCRSRTSTDLDVDVDQPKEEKKECYYNLNDASLCDNVLAPNVTKQECCCTSGVGWGDNCEIFPCPVLGTAEFTEMCPKGKGFVPAGESSSEAGGENYKDADECLLFGQEICKNGFCLNTRPGYECYCKQGTYYDPVKLQCFDMDECQDPSSCIDGQCVNTEGSYNCFCTHPMVLDASEKRCIRPAESNEQIEETDVYQDLCWEHLSDEYVCSRPLVGKQTTYTECCCLYGEAWGMQCALCPLKDSDDYAQLCNIPVTGRRQPYGRDALVDFSEQYTPEADPYFIQDRFLNSFEELQAEECGILNGCENGRCVRVQEGYTCDCFDGYHLDTAKMTCVDVNECDELNNRMSLCKNAKCINTDGSYKCLCLPGYVPSDKPNYCTPLNTALNLEKDSDLE | – | binds
